Experimental data reported in article PMC4951027 (2016).
Ends that are not written are not given here.

Target: Fn N-terminal domain fragment (Fn-NTD) (human)
Test: ITC

Fn N-terminal domain fragment (Fn-NTD) (human), sequence (chain, as listed by the source): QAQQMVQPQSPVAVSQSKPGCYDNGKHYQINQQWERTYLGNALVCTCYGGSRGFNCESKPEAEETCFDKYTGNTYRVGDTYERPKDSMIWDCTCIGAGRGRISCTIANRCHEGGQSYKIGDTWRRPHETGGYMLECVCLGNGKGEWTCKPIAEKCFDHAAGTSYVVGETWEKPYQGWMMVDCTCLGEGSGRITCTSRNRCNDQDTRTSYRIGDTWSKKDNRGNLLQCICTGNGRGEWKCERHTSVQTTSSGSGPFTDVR

Binder	Kd
NEKNGPIIQNNKFEYKEDTIKETLTGQYDKNLVTTVEEEYDS (domain or fragment, also: fused to GST carrier (carrier not in chain)) [GST-FnBPA-1]	4.8 nM
GGGQVTTESNLVEFDEESTKGIVTGAVSDHTTVEDTK (domain or fragment, also: fused to GST carrier (carrier not in chain)) [GST-FnBPA-5]	44 nM
KYEHGGNIIDIDFDSVPHIHGFNKHTEIIEEDTNKDKP (domain or fragment, also: fused to GST carrier (carrier not in chain)) [GST-FnBPA-10]	20 nM
SYQFGGHNSVDFEEDTLPKVSGQNEGQQTIEEDTTPP (domain or fragment, also: fused to GST carrier (carrier not in chain)) [GST-FnBPA-11]	< 1 nM
KYEQGGNIVDIDFDSVPQIHGQNKGNQSFEEDTEKDKP (domain or fragment, also: fused to GST carrier (carrier not in chain)) [GST-FnBPA-9]	7.3 nM
